From article PMC4932452

Target: heat shock protein 70 (UniProt P0DMV8)
Assay: co-immunoprecipitation (anti-Flag beads) and western blot, band densitometry
Conditions: beads incubated with celastrol for 10 min, room temperature; n = 3; parent: est. 0.73; read off a plot

Sequence of UniProt P0DMV8 (P0DMV8 whole entry): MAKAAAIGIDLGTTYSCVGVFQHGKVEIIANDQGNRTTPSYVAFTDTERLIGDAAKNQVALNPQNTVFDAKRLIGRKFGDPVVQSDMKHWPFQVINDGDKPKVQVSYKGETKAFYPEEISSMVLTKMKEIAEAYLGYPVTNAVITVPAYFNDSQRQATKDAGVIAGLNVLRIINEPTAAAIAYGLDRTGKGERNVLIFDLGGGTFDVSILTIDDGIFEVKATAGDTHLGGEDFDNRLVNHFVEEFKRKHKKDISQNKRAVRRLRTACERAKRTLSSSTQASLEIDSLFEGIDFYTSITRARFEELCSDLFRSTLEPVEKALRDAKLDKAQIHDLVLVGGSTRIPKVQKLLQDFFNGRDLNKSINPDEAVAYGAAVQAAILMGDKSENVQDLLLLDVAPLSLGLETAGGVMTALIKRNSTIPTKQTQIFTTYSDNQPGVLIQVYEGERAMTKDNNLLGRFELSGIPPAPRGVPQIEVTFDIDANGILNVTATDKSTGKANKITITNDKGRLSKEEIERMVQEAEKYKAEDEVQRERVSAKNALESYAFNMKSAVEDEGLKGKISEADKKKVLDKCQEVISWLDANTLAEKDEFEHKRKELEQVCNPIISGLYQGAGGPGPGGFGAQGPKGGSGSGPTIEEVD

other: band density of cell-free experiment (ratios to HSP90α), DMSO group set as 1.0: 1.3
Substance: wild-type human HSP90α (Flag-tagged, from pCMV-tag2a) (from UniProt P07900-1) Y493G; K546D
